Experimental data reported in patent US20210380703A1 (RIGEL PHARMACEUTICALS, published 2021).

Key:
human ACVR2A = human ACVR2A (human, UniProt P27037 20-135, limits assumed); assay: ELISA
Procedure, shortened: (§1)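 Monoclonal antibodies were first applied to human or mouse ACVR2A, alongside biotinylated goat anti-human kappa light chain (positive control) and human Fc (negative control); binding was then determined by ELISA.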

mouse ACVR2A = mouse ACVR2A (mouse, UniProt P27038 20-135, limits assumed); assay: ELISA
Procedure, shortened: as §1

[1] = target: T1, biotinylated goat anti-human kappa light chain; assay: ELISA; positive control
T1 construct: Positive control of the ELISA
Procedure, shortened: as §1
Note: test concentration or dose not given here.

human ACVR2A, sequence (P27037 20-135 limits assumed): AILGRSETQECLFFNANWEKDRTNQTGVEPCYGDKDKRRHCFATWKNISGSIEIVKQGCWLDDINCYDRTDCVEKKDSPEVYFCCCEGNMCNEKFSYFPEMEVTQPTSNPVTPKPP
mouse ACVR2A, sequence (P27038 20-135 limits assumed): as the sequence (P27037 20-135 limits assumed) above, with K20R, V73I counted along it

Row | optical density (human ACVR2A) | optical density (mouse ACVR2A) | optical density [1] | Binder
1 | 3.72 OD | 3.69 OD | 3.12 OD | 375_A05 (antibody, V domains shown, VH/VL only) VH: EVQLLESGGGLVQPGGSLRLSCAASGFTFSSYGMNWVRQAPGKGLEWVANINYNGGYKGYADSVKGRFTISRDNSKNTLYLQMNSLRAEDTAVYYCARSANWHDTALDYWGQGTLVTVSS VL: DIQMTQSPSSLSASVGDRVTITCRASQSILSYLNWYQQKPGKAPKLLIYAATSRASGVPSRFSGSGSGTDFTLTISSLQPEDFATYYCQQSYDLPLTFGGGTKVEIK
2 | 3.28 OD | 3.31 OD | 3.19 OD | 374_H04 (antibody, V domains shown, VH/VL only) VH: EVQLLESGGGLVQPGGSLRLSCAASGFTFDSYSMNWVRQAPGKGLEWVSGINYNSGYTSYADSVKGRFTISRDNSKNTLYLQMNSLRAEDTAVYYCARSANWHDTALDYWGQGTLVTVSS VL: DIQMTQSPSSLSASVGDRVTITCRASQSILTYLNWYQQKPGKAPKLLIYAATSRASGVPSRFSGSGSGTDFTLTISSLQPEDFATYYCQQSYDNPLTFGGGTKVEIK
3 | 3.31 OD | 3.27 OD | 3.09 OD | 374_H08 (antibody, V domains shown, VH/VL only) VH: EVQLLESGGGLVQPGGSLRLSCAASGFTFDSYSMNWVRQAPGKGLEWVSGINYNGGYTGYADSVKGRFTISRDNSKNTLYLQMNSLRAEDTAVYYCARSATWHDTHLDYWGQGTLVTVSS VL: DIQMTQSPSSLSASVGDRVTITCRASQSILSYLNWYQQKPGKAPKLLIYAATSLHSGVPSRFSGSGSGTDFTLTISSLQPEDFATYYCQQSYENPLTFGGGTKVEIK
4 | 3.69 OD | 3.73 OD | 3.26 OD | 375_B04 (antibody, V domains shown, VH/VL only) VH: EVQLLESGGGLVQPGGSLRLSCAASGFTFDSYSMNWVRQAPGKGLEWVANINYNGGYTGYADSVKGRFTISRDNSKNTLYLQMNSLRAEDTAVYYCARSATWHDTHLDYWGQGTLVTVSS VL: DIQMTQSPSSLSASVGDRVTITCRASQSILTYLNWYQQKPGKAPKLLIYAATSRASGVPSRFSGSGSGTDFTLTISSLQPEDFATYYCQQSYDNPLTFGGGTKVEIK
5 | 2.98 OD | 3.18 OD | 3.07 OD | 375_A02 (antibody, V domains shown, VH/VL only) VH: EVQLLESGGGLVQPGGSLRLSCAASGFTFSSYSMNWVRQAPGKGLEWVAGINYNSGYTSYADSVKGRFTISRDNSKNTLYLQMNSLRAEDTAVYYCARSATWHDTHLDYWGQGTLVTVSS VL: not shown
6 | 3.3 OD | 3.26 OD | 3.08 OD | 374_H06 (antibody, V domains shown, VH/VL only) VH: EVQLLESGGGLVQPGGSLRLSCAASGFTFSSYGMNWVRQAPGKGLEWVSNINYNGGYTGYADSVKGRFTISRDNSKNTLYLQMNSLRAEDTAVYYCARSANWHDTALDYWGQGTLVTVSS VL: DIQMTQSPSSLSASVGDRVTITCRASQSIVSYVNWYQQKPGKAPKLVIYAATSRASGVPSRFSGSGSGTDFTLTISSLQPEDFATYYCQQSYNLPLTFGGGTKVEIK
7 | 3.65 OD | 3.71 OD | 3.11 OD | 375_A06 (antibody, V domains shown, VH/VL only) VH: EVQLLESGGGLVQPGGSLRLSCAASGFTFSSYSMNWVRQAPGKGLEWVAGINYNSGYKGYADSVKGRFTISRDNSKNTLYLQMNSLRAEDTAVYYCARSATWHDTHLDYWGQGTLVTVSS VL: DIQMTQSPSSLSASVGDRVTITCRASQSILTYVNWYQQKPGKAPKLLIYAASSLQSGVPSRFSGSGSGTDFTLTISSLQPEDFATYYCQQSYSTPLTFGGGTKVEIK
8 | 3.63 OD | 3.72 OD | 3.26 OD | 374_G07 (antibody, V domains shown, VH/VL only) VH: EVQLLESGGGLVQPGGSLRLSCAASGFTFSSYSMNWVRQAPGKGLEWVSGINYNSGYKSYADSVKGRFTISRDNSKNTLYLQMNSLRAEDTAVYYCARSANWHDTALDYWGQGTLVTVSS VL: DIQMTQSPSSLSASVGDRVTITCRASQSIISYLNWYQQKPGKAPKLLIYAATSRASGVPSRFSGSGSGTDFTLTISSLQPEDFATYYCQQSYDSPLTFGGGTKVEIK
9 | 3.25 OD | 3.26 OD | 3.04 OD | 374_H09 (antibody, V domains shown, VH/VL only) VH: EVQLLESGGGLVQPGGSLRLSCAASGFTFSSYSMNWVRQAPGKGLEWVANINYNSGYKSYADSVKGRFTISRDNSKNTLYLQMNSLRAEDTAVYYCARSANWHDTALDYWGQGTLVTVSS VL: DIQMTQSPSSLSASVGDRVTITCRASQSILSYLNWYQQKPGKAPKLVIYAVTSLASGVPSRFSGSGSGTDFTLTISSLQPEDFATYYCQQSYDLPLTFGGGTKVEIK
10 | 3.24 OD | 3.25 OD | 2.97 OD | 374_H07 (antibody, V domains shown, VH/VL only) VH: EVQLLESGGGLVQPGGSLRLSCAASGFTFDSYGMNWVRQAPGKGLEWVANINYNGGYTGYADSVKGRFTISRDNSKNTLYLQMNSLRAEDTAVYYCARSANWHDTALDYWGQGTLVTVSS VL: DIQMTQSPSSLSASVGDRVTITCRASQSILTYLNWYQQKPGKAPKLLIYAATSRASGVPSRFSGSGSGTDFTLTISSLQPEDFATYYCQQSYETPLTFGGGTKVEIK
11 | 3.27 OD | 3.27 OD | 3.06 OD | 374_H03 (antibody, V domains shown, VH/VL only) VH: EVQLLESGGGLVQPGGSLRLSCAASGFTFSSYGMNWVRQAPGKGLEWVSGINYNSGYKSYADSVKGRFTISRDNSKNTLYLQMNSLRAEDTAVYYCARSANWHDTALDYWGQGTLVTVSS VL: DIQMTQSPSSLSASVGDRVTITCRASQSILSYVNWYQQKPGKAPKLVIYAATSRASGVPSRFSGSGSGTDFTLTISSLQPEDFATYYCQQSYDSPLTFGGGTKVEIK

Continued, binder first:

Row | Binder | optical density (human ACVR2A) | optical density (mouse ACVR2A) | optical density [1]
12 | 374_E09 (antibody, V domains shown, VH/VL only) VH: EVQLLESGGGLVQPGGSLRLSCAASGFTFSDYSMNWVRQAPGKGLEWVSGINYNGGYKGYADSVKGRFTISRDNSKNTLYLQMNSLRAEDTAVYYCARSATWHDTHLDYWGQGTLVTVSS VL: DIQMTQSPSSLSASVGDRVTITCRASQSIVTYLNWYQQKPGKAPKLVIYAATSRASGVPSRFSGSGSGTDFTLTISSLQPEDFATYYCQQSYDSPLTFGGGTKVEIK | 3.67 OD | 3.58 OD | 3.16 OD
13 | 374_E11 (antibody, V domains shown, VH/VL only) VH: EVQLLESGGGLVQPGGSLRLSCAASGFTFSSYGMNWVRQAPGKGLEWVSNINYNGGYTSYADSVKGRFTISRDNSKNTLYLQMNSLRAEDTAVYYCARSANWHDTALDYWGQGTLVTVSS VL: DIQMTQSPSSLSASVGDRVTITCRASQSIVTYLNWYQQKPGKAPKLVIYAATSRASGVPSRFSGSGSGTDFTLTISSLQPEDFATYYCQQSYDSPLTFGGGTKVEIK | 3.61 OD | 3.59 OD | 3.34 OD
14 | 374_G06 (antibody, V domains shown, VH/VL only) VH: EVQLLESGGGLVQPGGSLRLSCAASGFTFSSYGMHWVRQAPGKGLEWVASINYNGGYTSYADSVKGRFTISRDNSKNTLYLQMNSLRAEDTAVYYCARSANWHDTALDYWGQGTLVTVSS VL: DIQMTQSPSSLSASVGDRVTITCRASQSILSYLNWYQQKPGKAPKLLIYAVTSRASGVPSRFSGSGSGTDFTLTISSLQPEDFATYYCQQSYDLPLTFGGGTKVEIK | 3.26 OD | 3.42 OD | 3.29 OD
15 | 374_F11 (antibody, V domains shown, VH/VL only) VH: EVQLLESGGGLVQPGGSLRLSCAASGFTFDSYSMNWVRQAPGKGLEWVSNINYNGGYTGYADSVKGRFTISRDNSKNTLYLQMNSLRAEDTAVYYCARSANWHDTALDYWGQGTLVTVSS VL: DIQMTQSPSSLSASVGDRVTITCRASQSILSYLNWYQQKPGKAPKLLIYAVTSLASGVPSRFSGSGSGTDFTLTISSLQPEDFATYYCQQSYESPLTFGGGTKVEIK | 3.66 OD | 3.61 OD | 3.15 OD
16 | 374_F01 (antibody, V domains shown, VH/VL only) VH: EVQLLESGGGLVQPGGSLRLSCAASGFTFDSYSMNWVRQAPGKGLEWVSNINYNGGYTGYADSVKGRFTISRDNSKNTLYLQMNSLRAEDTAVYYCARSANWHDTALDYWGQGTLVTVSS VL: DIQMTQSPSSLSASVGDRVTITCRASQSILSYVNWYQQKPGKAPKLVIYAATSRHSGVPSRFSGSGSGTDFTLTISSLQPEDFATYYCQQSYENPLTFGGGTKVEIK | 3.29 OD | 3.6 OD | 3.03 OD
17 | 374_G04 (antibody, V domains shown, VH/VL only) VH: EVQLLESGGGLVQPGGSLRLSCAASGFTFSSYSMNWVRQAPGKGLEWVAGINYNGGYTGYADSVKGRFTISRDNSKNTLYLQMNSLRAEDTAVYYCARSANWHDTALDYWGQGTLVTVSS VL: DIQMTQSPSSLSASVGDRVTITCRASQSILTYLNWYQQKPGKAPKLVIYAATSLASGVPSRFSGSGSGTDFTLTISSLQPEDFATYYCQQSYDNPLTFGGGTKVEIK | 2.1 OD | 2.32 OD | 3.02 OD
18 | 374_F10 (antibody, V domains shown, VH/VL only) VH: EVQLLESGGGLVQPGGSLRLSCAASGFTFSSYSMNWVRQAPGKGLEWVSGINYNGGYTSYADSVKGRFTISRDNSKNTLYLQMNSLRAEDTAVYYCARSANWHDTALDYWGQGTLVTVSS VL: DIQMTQSPSSLSASVGDRVTITCRASQSILSYLNWYQQKPGKAPKLVIYAATSRASGVPSRFSGSGSGTDFTLTISSLQPEDFATYYCQQSYDNPLTFGGGTKVEIK | 3.21 OD | 3.45 OD | 3.28 OD
19 | 374_F04 (antibody, V domains shown, VH/VL only) VH: EVQLLESGGGLVQPGGSLRLSCAASGFTFSSYGMNWVRQAPGKGLEWVSGINYNSGYKSYADSVKGRFTISRDNSKNTLYLQMNSLRAEDTAVYYCARSANWHDTALDYWGQGTLVTVSS VL: DIQMTQSPSSLSASVGDRVTITCRASQSILTYVNWYQQKPGKAPKLLIYAATSRASGVPSRFSGSGSGTDFTLTISSLQPEDFATYYCQQSYNSPLTFGGGTKVEIK | 3.58 OD | 3.65 OD | 3.23 OD
